Consider 2 molecules from patent CN109678963A (UNIV CHINA PHARMA, dated 2019).

For test [1], the target named is T1, CD24裸肽 (CD24 naked peptide) (human, UniProt P25063 27-59, limits assumed).
T1 construct: also called 抗原CD24
T1 peptide (looked up): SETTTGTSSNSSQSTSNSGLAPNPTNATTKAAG
The experiment in a line: SPR, Biacore X100; antibody captured by anti-human IgG(Fc) on a CM5 chip, CD24 naked peptide as analyte (100-0.39 nM), 25 C. On the technique in general: SPR reads the build-up and loss of mass on a sensor chip optically.

The target in test [2] is T2, 重组人rNKG2D分子 (recombinant human NKG2D) (human, UniProt P26718 78-216, limits assumed).
T2 construct: Used as SPR analyte; source and construct are not described
T2 sequence (looked up): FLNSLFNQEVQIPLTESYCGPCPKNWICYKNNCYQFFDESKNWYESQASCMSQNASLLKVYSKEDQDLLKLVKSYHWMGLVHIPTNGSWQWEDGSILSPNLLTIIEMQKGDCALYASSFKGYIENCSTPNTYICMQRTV
The experiment in a line: SPR, Biacore X100; cG7-MICA captured by anti-human IgG(Fc) on a CM5 chip, recombinant human rNKG2D as analyte (100-6.25 nM).

B1: 靶向CD24的双特异性抗体cG7-MICA (anti-CD24 humanized chimeric antibody cG7 fused at the heavy chain C-terminus to the human MICA extracellular domains 1-3) (bispecific antibody)
heavy: not shown
light: DIVMTQTPLSLSVTIGQPASISCKSSQSLLHSDGKTYLNWLLQRPGQSPKRLIYLVSKLDSGVPDRFTGSGSGTDFTLKVSRVEAEDLGVYYCWQGAHFPYTFGGGTKLEIKVDTVAAPSVFIFPPSDEQLKSGTASVVCLLNNFYPREAKVQWKVDNALQSGNSQESVTEQDSKDSTYSLSSTLTLSKADYEKHKVYACEVTHQGLSSPVTKSFNRGEC
notes: Expressed in CHO-s, purified on Protein A, about 210 kD
On to B1, for which, in test [1], the Kd (commonly the constant that tells how readily two partners part at equilibrium) was 0.242 nM; the koff (usually a measure of how fast the partners let go of each other) is 0.000339 s⁻¹; the kon (in general, the second-order rate constant of association) is 1.4e+06 M⁻¹ s⁻¹. In test [2], the Kd came out at 576 nM, the koff is 0.0015 s⁻¹ and the kon was 2620 M⁻¹ s⁻¹.

B2: 抗CD24人源化嵌合抗体cG7 (antibody, V domains shown)
VH: QVKLEESGGGLVQPGGSLKISCAASGFDFSRYWMSWVRQAPGKGLEWIGEINPDSSTINYTPSLRDKFIISRDNAKNTLYLQMSKVRYEDTSLYYCARQGDYWGQGTSVTVSS
VL: not shown
In test [1], B2 showed an equilibrium dissociation constant (Kd) of 0.191 nM, a koff of 0.000336 s⁻¹ and a kon of 1.76e+06 M⁻¹ s⁻¹.
